Reference: patent US11932683B2, “Cellular factors involved in the cytotoxicity of Staphylococcus aureus leukocidins: novel therapeutic targets” (NEW YORK UNIVERSITY, priority 2013, dated 2024)

Columns and labels:
CCR5^+ cells = conditions: cited from earlier work
monocytes within PBMCs = assay: LukED treatment of human PBMCs, CD14/CD3 flow cytometry; assay type: cell-based; conditions: CCR5+-gated PBMC; LukED 75 nM plus MVC 100 ng/mL
Method: Isolation of PBMCs. Blood was obtained as buffy coats with the consent of de-identified donors from the New York Blood Center. PBMCs were isolated from blood using a Ficoll-Paque PLUS gradient (GE Amersham) and gated on CCR5^+ cells, followed by anti-CD3 and CD14 cell surface staining for lymphocyte and monocyte populations. Cells were then incubated with LukED (75 nM) in the presence or absence of maraviroc (MVC, 100 ng ml-1).
CCR5 inhibitor and ligands. Maraviroc was obtained through the AIDS Research and Reference Reagent Program, Division of AIDS (NIAID, NIH) and used at a final concentration of 100 ng ml-1.
FACS analysis. Cell staining was performed as described previously (Alonzo et al., “CCR5 is a Receptor for Staphylococcus aureus Leukotoxin ED,” Nature 493:51-55 (2013), which is hereby incorporated by reference in its entirety). FACS data were obtained using FACSDiva software on a LSRII flow cytometer (BD Biosciences). Data was analyzed using FlowJo software (Treestar).
(§1) Leukotoxin treatments. HEK293T cells, THP-1, primary human PBMCs and primary murine peritoneal exudate cells were treated with LukE, LukD or LukED as previously described (Alonzo et al., “CCR5 is a Receptor for Staphylococcus aureus Leukotoxin ED,” Nature 493:51-55 (2013), which is hereby incorporated by reference in its entirety). In all experiments 1-2×10^5 cells were seeded into 96-well plates. […]

CXCR2 [1] = target: T1, CXCR2 (Homo sapiens, UniProt P25025); assay: Toxin susceptibility of HEK293T cells transfected with chemokine receptor CXCR2; assay type: cell-based; design: expressed in transfected cells; host or cells: HEK293T; conditions: viability (600 nM) or ethidium bromide permeability (1 hr; HlgAB/HlgCB 20 μg/ml)
T1 sequence (P25025 1-360): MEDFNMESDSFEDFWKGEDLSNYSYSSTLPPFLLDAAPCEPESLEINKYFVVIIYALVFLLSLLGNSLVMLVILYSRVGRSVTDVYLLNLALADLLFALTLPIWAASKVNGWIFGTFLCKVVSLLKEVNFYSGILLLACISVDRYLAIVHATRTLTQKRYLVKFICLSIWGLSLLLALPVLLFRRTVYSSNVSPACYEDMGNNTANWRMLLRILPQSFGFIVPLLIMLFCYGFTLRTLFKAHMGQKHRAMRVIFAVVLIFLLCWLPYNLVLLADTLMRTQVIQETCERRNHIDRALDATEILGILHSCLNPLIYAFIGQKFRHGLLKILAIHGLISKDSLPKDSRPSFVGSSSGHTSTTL
Method: Cell culture conditions and viral transductions. Primary human cells and THP-1 were cultured at 37° C. with 5% CO2 in RPMI supplemented with 10% fetal bovine serum (FBS; Atlanta Biologicals) and penicillin (100 U ml-1) and streptomycin (0.1 mg ml-1) (Mediatech) unless stated otherwise. Overexpression and lentiviral-based knockdown of Cxcr2 or non-target shRNA were performed as previously described (Wan et al., “Cytokine Signals Through PI-3 Kinase Pathway Modulate Th17 Cytokine Production by CCR6+ Human Memory T Cells,” J. Exp. Med. 208:1875-1887 (2011), which is hereby incorporated by reference in its entirety) and maintained in 1.3 μg ml-1 puromycin. HEK293T cells were cultured at 37° C. with 5% CO2 in DMEM (Cellgro) and supplemented as described above.
as §1

human PMNs [2] = assay: Viability of primary human neutrophils (PMNs) treated with leukotoxins; assay type: cell-based; conditions: HlgA or hybrid mixed equimolar with HlgB; CellTiter; n=8 donors
CXCR1 [3] = target: T2, CXCR1 (Homo sapiens, UniProt P25024); assay: Toxin susceptibility of HEK293T cells transfected with chemokine receptor CXCR1; assay type: cell-based; design: expressed in transfected cells; host or cells: HEK293T; conditions: viability (600 nM) or ethidium bromide permeability (1 hr; HlgAB/HlgCB 20 μg/ml)
T2 sequence (P25024 1-350): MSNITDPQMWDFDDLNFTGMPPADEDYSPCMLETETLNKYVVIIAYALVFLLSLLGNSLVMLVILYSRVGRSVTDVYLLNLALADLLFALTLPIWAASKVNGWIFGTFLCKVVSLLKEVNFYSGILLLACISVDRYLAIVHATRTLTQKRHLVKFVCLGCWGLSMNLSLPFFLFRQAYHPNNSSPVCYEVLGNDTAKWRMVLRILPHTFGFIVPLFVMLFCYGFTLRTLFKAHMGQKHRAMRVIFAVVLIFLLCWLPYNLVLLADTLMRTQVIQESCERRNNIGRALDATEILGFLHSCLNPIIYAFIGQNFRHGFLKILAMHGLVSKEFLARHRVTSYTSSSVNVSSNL

DARC = target: T3, DARC (Homo sapiens, UniProt Q16570); assay: Toxin susceptibility of HEK293T cells transfected with DARC; assay type: cell-based; conditions: ethidium bromide permeability (1 hr; HlgAB/HlgCB 20 μg/ml)
T3 construct: expressed in transfected cells; host or cells: HEK293T
T3 sequence (Q16570 1-336): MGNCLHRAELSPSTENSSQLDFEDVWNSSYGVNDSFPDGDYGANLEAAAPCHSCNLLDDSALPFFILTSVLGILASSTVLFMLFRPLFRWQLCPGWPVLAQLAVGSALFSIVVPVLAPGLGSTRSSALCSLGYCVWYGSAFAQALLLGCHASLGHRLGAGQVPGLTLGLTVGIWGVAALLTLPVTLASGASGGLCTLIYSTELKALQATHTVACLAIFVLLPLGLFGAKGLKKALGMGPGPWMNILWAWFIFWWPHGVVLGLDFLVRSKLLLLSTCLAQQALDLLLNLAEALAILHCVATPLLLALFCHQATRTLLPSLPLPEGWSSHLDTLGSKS

CXCR2 [4] = target: T1, CXCR2; assay: Pulldown of His-tagged toxin with cell lysates containing HA-tagged CXCR2; assay type: binding; design: host or cells: HEK293T; conditions: HA-tagged receptor lysate
Method: (§2) Biochemical assays to examine interactions between LukED and CXCR1 or CXCR2. HEK293T cells were transiently transfected with cDNAs encoding N-terminal HA-tagged CXCR1 or CXCR2 (Missouri S&T cDNA Resource Center) using Lipofectamine 2000 (Invitrogen). Forty-eight hours post transfection, cells were detached with PBS containing 5 mM EDTA and membrane proteins were solubilized (approximately 1×10^6 cells per condition) for 1 hour using lysis buffer (PBS+10mM imidazole (Fisher)+1% Brij 010 (Sigma)+1 mM PMSF (Thermo Scientific)+2× protease inhibitor pellets (Roche)). His-tagged LukE and LukD were incubated with equilibrated Ni-NTA resin (Qiagen) for 2 hours, followed by three washes in lysis buffer. Lysates and resin were then incubated together for 2 hours, followed by three washes in lysis buffer and final resuspension of resin in 45 μl of 4×SDS sample buffer. Protein samples were run on 10% SDS-PAGE gels at 80V, followed by transfer to nitrocellulose membranes (GE) for 1 hour at 1 Amp. Membranes were blocked with PBS+0.01% Tween-20+5% non-fat milk for 1 hour and incubated overnight at 4° C. with either anti-His antibody diluted at 1:3,000 in PBS+0.01% Tween-20 for toxins (Cell Sciences) or anti-HA antibody diluted at 1:1,000 in with PBS+0.01% Tween-20+5% non-fat milk for receptors (Covance). […]

human PMNs [5] = assay: Binding and competition assays with GFP-LukE/GFP-LukD on PMNs, flow cytometry; conditions: GFP-LukE 300 nM
Method: Binding and competition assays. For binding assays, increasing concentrations of GFP-LukE or GFP-LukD were added to 5×10^4 human PMNs and incubated for 30 minutes on ice, then washed once in FACS buffer and fixed for 15 minutes at room temperature followed by flow cytometric analysis. Mean fluorescence intensity (MFI) of GFP^+ cells was measured to establish the toxin concentration required to achieve saturable binding. For remaining competition assays, increasing concentrations of either LukE or LukS-PV were co-incubated with a constant saturable concentration of LukE-GFP (300 nM) for 30 minutes. Cells were washed once in FACS buffer, fixed for 15 minutes in FACS fixing buffer, washed again in FACS buffer, and binding was assessed by flow cytometry. The mean GFP fluorescent intensity is represented as % GFP^+, based on the maximal fluorescence observed upon incubation with 300 nM GFP-LukE. […] Cells were washed once in FACS buffer, fixed for 15 minutes in FACS fixing buffer, washed again in FACS buffer, and binding was assessed by flow cytometry as described above. Results for these assays were depicted graphically using GraphPad PRISM software (version 5.0f, GraphPad PRISM Software, Inc.).

[6] = tested on: CXCR1 and CXCR2 activation on human PMNs; assay: Calcium mobilization on PMNs (Fluo4-AM, flow cytometry); assay type: cell-based; conditions: LukE 300 nM
Method: Measurements of calcium mobilization. CXCR1 and CXCR2 activation on human PMNs was evaluated using the fluorescent calcium indicator Fluo4-AM (Invitrogen) as previously described (Alonzo et al., “CCR5 is a Receptor for Staphylococcus aureus Leukotoxin ED,” Nature 493:51-55 (2013), which is hereby incorporated by reference in its entirety). Briefly, cells were incubated for 30 minutes at room temperature with 3 μM of Fluo4-AM in Hank's Balanced Salt Solution (HBSS) followed by three washes in HBSS and equilibration at 37° C. for 30 minutes. Baseline calcium levels were analyzed over time on a flow cytometer for 60 seconds. […] The mean fluorescent intensity over 5-second intervals was plotted for graphical display.

CXCR1 [7] = target: T2, CXCR1; assay: Pulldown of His-tagged toxin with cell lysates containing HA-tagged CXCR1; assay type: binding; design: host or cells: HEK293T; conditions: HA-tagged receptor lysate
Method: as §2

human PMNs [8] = assay: Viability of PMNs challenged with a lethal dose of LukED in the presence of chemokines; assay type: cell-based; conditions: LukED 75 nM
PMNs = assay: Ex vivo infection of PMNs with toxin-producing S. aureus strains; assay type: cell-based, human; conditions: multiplicity of infection of 10
Method: Ex vivo infection experiments. S. aureus strains containing either the pOS1-plukA-lukAs.s.-6×His vector construct containing either no toxin (empty), lukED or lukE^DR4D were subcultured for 4.5 hours, followed by normalization to 1×10^9 CFU per ml in RPMI+10% FBS. Cells were diluted 1:10 and 20 μl were added to 80 μl of media containing 2×10^5 PMNs seeded into 96-well plates. Infections were carried out for 3.5 hours at 37° C. with shaking at 180 RPM. 2 μg ml-1 of lysostaphin was added for 20 minutes at 37° C. with shaking at 180 RPM to kill all bacteria. Cells were centrifuged for 5 minutes at 1,500 RPM and 4° C., followed by fixing in FACS fixing buffer (PBS+2% FBS+2% paraformaldehyde+0.05% sodium azide). To analyze toxin mediated killing by flow cytometry, cellular depletion from gated live cells was evaluated. Percent cell death was calculated by comparing cells remaining in the live gate to that of Newman ΔΔΔΔ strain containing the empty pOS1-plukA modified empty vector (no toxin), which was set to 0% dead.

human RBCs = assay: LukED-mediated lysis of human red blood cells; assay type: cell-based; conditions: n=3 donors

## Maraviroc [reference compound]
CCR5^+ cells
  block of LukED mediated killing of CCR5+ cells: known to block LukED mediated killing of CCR5^+ cells
Monocytes within PBMCs
  protection of monocytes from LukED-mediated death: does not protect monocytes from LukED-mediated death

## HlgAB: S. aureus γ-hemolysin bicomponent leukotoxin, HlgA (SEQ ID NO:6) plus HlgB (SEQ ID NO:16)
CXCR2 [1]
  susceptibility of CXCR2-transfected HEK293T cells to toxin: rendered cells susceptible
Human PMNs [2]
  cytotoxic activity against hPMNs: exhibited potent cytotoxic activity against hPMNs
CXCR1 [3]
  susceptibility of CXCR1-transfected HEK293T cells to toxin: rendered cells susceptible
DARC
  susceptibility of DARC-transfected HEK293T cells to toxin: rendered cells susceptible

## LukE: S. aureus Leukocidin E subunit, soluble protein SEQ ID NO:4
CXCR2 [4]
  complex formation with CXCR2 (pulldown, immunoblot): forms complexes with both CXCR1 and CXCR2
Human PMNs [5]
  competition with GFP-LukE binding to PMNs: competed off
[6]
  calcium mobilization on PMNs: unable to elicit calcium mobilization
CXCR1 [7]
  complex formation with CXCR1 (pulldown, immunoblot): forms complexes with both CXCR1 and CXCR2

## CXCL8: chemokine ligand of CXCR1/CXCR2, obtained from BioLegend
Human PMNs [8]
  prevention of LukED-mediated death of PMNs: prevented LukED-mediated death of PMNs
PMNs
  inhibition of cytotoxic activity of the LukED-producing S. aureus strain on PMNs: inhibited by CXCL8

B1: DARC: purified Duffy antigen receptor for chemokines (OriGene Technologies Inc.) (protein)
chain: T3 sequence (Q16570 1-336)
Human RBCs
  inhibition of LukED-mediated lysis of RBCs: fully neutralize LukED-mediated lysis of RBCs
